Test results reported in US20210324028A1 (Pfizer, published 2021).
Like-named read-outs stand apart in the source and are kept apart here.

B1: xmPD-1-hIL15 NQ mutant (other)
heavy 1: HHHHHHHHGGGGSGSGGEVQLVESGGGLVKPGGSLELSCAASGFTFSSYWMSWVRQAPEKGLEWVAAISPSGGSTYYADSVKGRFTISRDNAKNTLFLQMTSLRSEDTAMYYCAKESWGAYYDLWGQGTTVTVSSASTKGPSVFPLAPCSRSTSESTAALGCLVKDYFPEPVTVSWNSGALTSGVHTFPAVLQSSGLYSLSSVVTVPSSNFGTQTYTCNVDHKPSNTKVDKTVERKCRVRCPRCPAPPVAGPSVFLFPPKPKDTLMISRTPEVTCVVVAVSHEDPEVQFNWYVDGVEVHNAKTKPREEQFNSTFRVVSVLTVVHQDWLNGKEYKCKVSNKGLPSSIEKTISKTKGQPREPQVYTLPPSREEMTKNQVSLTCLVKGFYPSDIAVEWESNGQPENNYKTTPPMLDSDGSFFLYSRLTVDKSRWQQGNVFSCSVMHEALHNHYTQKSLSLSPGK
heavy 2: EVQLVESGGGLVKPGGSLELSCAASGFTFSSYWMSWVRQAPEKGLEWVAAISPSGGSTYYADSVKGRFTISRDNAKNTLFLQMTSLRSEDTAMYYCAKESWGAYYDLWGQGTTVTVSSASTKGPSVFPLAPCSRSTSESTAALGCLVKDYFPEPVTVSWNSGALTSGVHTFPAVLQSSGLYSLSSVVTVPSSNFGTQTYTCNVDHKPSNTKVDKTVERKCEVECPECPAPPVAGPSVFLFPPKPKDTLMISRTPEVTCVVVAVSHEDPEVQFNWYVDGVEVHNAKTKPREEQFNSTFRVVSVLTVVHQDWLNGKEYKCKVSNKGLPSSIEKTISKTKGQPREPQVYTLPPSREEMTKNQVSLTCEVKGFYPSDIAVEWESNGQPENNYKTTPPMLDSDGSFFLYSKLTVDKSRWQQGNVFSCSVMHEALHNHYTQKSLSLSPGSGGGGGTATATPGANWVNVISDLKKIEDLIQSMHINATLFTESDVHPSCKVTAMKCFLLQLQVISLQSGDASIHDTVENLIILANNSLSSNGNVTESGCKECQELEQKNIKEFLQSFVHIVQMFINT
light: DIVMTQSPSSLSVSAGDKVTMSCRASQGISSWLAWYQQKPWQPPKLLIYKASTLESGVPDRFTGSGSGTDFTLTISSVQAEDLAVYYCQQSYSTPWTFGGGTKLEIKGTVAAPSVFIFPPSDEQLKSGTASVVCLLNNFYPREAKVQWKVDNALQSGNSQESVTEQDSKDSTYSLSSTLTLSKADYEKHKVYACEVTHQGLSSPVTKSFNRGEC
notes: also called xmPD-1-IL15 NQ; xmPD1-IL15 NQ
B2: xmPD-1 (antibody, human IgG2, kappa, V domains shown)
VH: EVQLVESGGGLVKPGGSLELSCAASGFTFSSYWMSWVRQAPEKGLEWVAAISPSGGSTYYADSVKGRFTISRDNAKNTLFLQMTSLRSEDTAMYYCAKESWGAYYDLWGQGTTVTVSS
VL: DIVMTQSPSSLSVSAGDKVTMSCRASQGISSWLAWYQQKPWQPPKLLIYKASTLESGVPDRFTGSGSGTDFTLTISSVQAEDLAVYYCQQSYSTPWTFGGGTKLEIKG
notes: human IgG2dA constant regions; also called anti-mouse PD-1 antibody; clone F12.3

How the values were obtained:
human IL-2Rβ = molecular target: T1, human IL-2Rβ (human, UniProt P14784 27-240, limits assumed); assay: SPR, steady state, fusion captured
T1 construct: also called hIL-2Rβ; IL-2 receptor beta
T1 sequence (looked up): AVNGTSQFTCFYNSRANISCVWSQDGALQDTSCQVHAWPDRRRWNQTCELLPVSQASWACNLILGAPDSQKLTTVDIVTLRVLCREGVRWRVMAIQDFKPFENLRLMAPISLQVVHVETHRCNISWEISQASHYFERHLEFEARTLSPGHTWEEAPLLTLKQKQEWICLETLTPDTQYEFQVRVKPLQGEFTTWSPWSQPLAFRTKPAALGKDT
Experimental: Anti-human Fc sensor chips were prepared at 25° C. with a running buffer of 10 mM HEPES, 150 mM NaCl, 0.05% (v/v) Tween-20, pH 7.4. All surfaces of a Biacore CM4 sensor chip were activated with a 1:1 (v/v) mixture of 400 mM EDC and 100 mM NHS for 7 minutes, at a flow rate of 10 μL/min. An anti-human Fc reagent (Goat anti-human IgG Fc-γ specific, SouthernBiotech, Birmingham, Ala., Catalog #2014-01) was diluted to 50 μg/mL in 10 mM sodium acetate (pH 4.5) and injected on all flow cells for 7 minutes at 20 μL/min. All flow cells were blocked with 100 mM ethylenediamine in 200 mM Borate buffer pH 8.5 for 7 minutes at 10 μL/min.
All protein interaction experiments were performed at 37° C. using a running buffer of 10 mM HEPES, 150 mM NaCl, 0.05% (v/v) Tween-20, pH 7.4, 1 mg/mL BSA. Anti-PD-1-hIL-15 fusion proteins were captured at 10 μg/mL at a flow rate of 10 μL/min for 2 minutes. Different fusion proteins were captured in flow cells 2, 3 and 4. No protein was captured onto flow cell 1 which was used as a reference surface. […] After each analyte injection, dissociation was monitored for 5 minutes followed by regeneration of all flow cells with three 60-second injections of 75 mM phosphoric acid. […] For kinetic analysis, the double-referenced sensorgrams were fit globally to a simple 1:1 Langmuir with mass transport binding model using Biacore T200 Evaluation Software version 2.0. For steady-state affinity analysis, the double-referenced equilibrium binding responses were fit with a 1:1 Langmuir steady-state model using Biacore T200 Evaluation Software version 2.0.

[1] = molecular target: T2, mouse PD-1 on doxycycline-induced 32D[pRF770+pRF791] cells (mouse, UniProt Q02242 25-288); assay: flow cytometry, Alexa647-labelled protein on doxycycline-induced 32D[pRF770+pRF791] cells (mouse PD-1 together with CD122 plus CD132), 4 C 30 min, % A647-positive cells
T2 construct: whole, on cells; also called PD-1+ cells; [pRF770+pRF791]+Dox
T2 sequence (looked up): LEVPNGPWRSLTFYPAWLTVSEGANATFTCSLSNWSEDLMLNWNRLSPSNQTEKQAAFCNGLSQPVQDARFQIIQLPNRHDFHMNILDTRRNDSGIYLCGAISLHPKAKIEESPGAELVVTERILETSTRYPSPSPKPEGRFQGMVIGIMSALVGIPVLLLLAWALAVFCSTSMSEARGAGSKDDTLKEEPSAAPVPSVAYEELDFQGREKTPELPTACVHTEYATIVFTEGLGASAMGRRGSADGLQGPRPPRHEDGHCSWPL
Experimental: (§1) The following cell lines were suspended in growth medium to 0.7*10\hat{ }6 cells/mL and, cultured for 16 hrs: 1) untransduced 32D (parental line); 2) 32D[pRF770+pRF791]; and 3) 32D[pRF770+pRF791] grown in the presence of 1 ug/mL doxycycline, to induce PD-1 expression. Cultures were then resuspended to a final concentration of 1.0*10\hat{ }6 cells/mL, and 0.1 mL of each suspension was plated into separate wells of a 96-well round-bottom plate, of sufficient number required for the experiment. Each Alexa647-labeled antibody or antibody-cytokine chimeric proteins were then added to a unique well to obtain a final concentration of 500 nM, 100 nM, […], 1 nM, 0.1 nM, 0.01 nM, or 0.001 nM in a given well. Plates were incubated at 4° C. for 30′, and then the cells were pelleted by centrifugation (300×g, 5′) and resuspended in 0.2 mL of PBS. This wash step was repeated twice. Upon final resuspension, the cells were analyzed on an LSRII flow cytometer. Data were analyzed using FlowJo version 10.

[2] = molecular target: T3, IL-15 signaling receptor on 32D[pRF770+pRF791] cells (human CD122 plus mouse CD132) (human; mouse, UniProt P14784 27-551; P34902 23-369); assay: cell-based or functional assay
T3 sequence (looked up) 1: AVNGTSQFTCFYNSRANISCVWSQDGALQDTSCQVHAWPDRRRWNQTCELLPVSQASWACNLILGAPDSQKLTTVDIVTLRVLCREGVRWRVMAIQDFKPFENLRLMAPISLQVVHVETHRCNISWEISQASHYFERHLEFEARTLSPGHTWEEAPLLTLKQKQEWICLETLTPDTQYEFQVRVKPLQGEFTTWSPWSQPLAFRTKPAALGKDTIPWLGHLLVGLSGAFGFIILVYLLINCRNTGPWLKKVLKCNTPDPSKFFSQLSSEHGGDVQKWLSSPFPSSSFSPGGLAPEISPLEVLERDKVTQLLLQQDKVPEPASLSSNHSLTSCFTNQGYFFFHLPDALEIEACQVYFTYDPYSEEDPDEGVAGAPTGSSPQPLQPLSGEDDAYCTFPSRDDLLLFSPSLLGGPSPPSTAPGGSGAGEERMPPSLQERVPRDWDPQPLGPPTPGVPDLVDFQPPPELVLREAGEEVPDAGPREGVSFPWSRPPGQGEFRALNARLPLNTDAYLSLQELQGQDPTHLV
T3 sequence (looked up) 2: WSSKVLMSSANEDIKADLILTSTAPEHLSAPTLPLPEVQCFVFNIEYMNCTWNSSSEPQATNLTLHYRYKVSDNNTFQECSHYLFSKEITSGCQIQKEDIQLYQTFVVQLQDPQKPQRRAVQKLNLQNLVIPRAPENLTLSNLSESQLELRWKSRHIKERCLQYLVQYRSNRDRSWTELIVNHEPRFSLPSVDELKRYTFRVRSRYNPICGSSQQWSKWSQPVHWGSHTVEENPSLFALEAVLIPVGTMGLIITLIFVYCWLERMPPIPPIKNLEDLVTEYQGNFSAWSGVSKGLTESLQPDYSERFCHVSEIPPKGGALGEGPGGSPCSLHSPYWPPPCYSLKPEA

[3] = molecular target: T2, mouse PD-1 on doxycycline-induced …; assay: cell-based or functional assay
human IL-15Rα = molecular target: T4, human IL-15Rα (human, UniProt Q13261 31-205, limits assumed); assay: SPR 37C, fusion captured by anti-human Fc
T4 construct: also called hIL-15Rα; IL-15 receptor alpha
In short: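 Anti-PD-1–hIL-15 fusions captured at 10 μg/mL on an anti-human Fc surface, receptor injected at 37 °C in HEPES-buffered saline with 0.05% Tween-20 and 1 mg/mL BSA, pH 7.4; 5 min dissociation.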

[4] = molecular target: T3, IL-15 signaling receptor on …; assay: cell-based or functional assay; remark: listed apart in the source
[5] = molecular target: T2, mouse PD-1 on doxycycline-induced …; assay: cell-based or functional assay; remark: listed apart in the source
[6] = molecular target: T3, IL-15 signaling receptor on …; assay: cell-based or functional assay; remark: listed apart in the source
[7] = molecular target: T2, mouse PD-1 on doxycycline-induced …; assay: cell-based or functional assay; remark: listed apart in the source
[8] = molecular target: T3, IL-15 signaling receptor on …; assay: cell-based or functional assay; remark: listed apart in the source
[9] = molecular target: T2, mouse PD-1 on doxycycline-induced …; assay: cell-based or functional assay; remark: listed apart in the source
[10] = molecular target: T2, mouse PD-1 on doxycycline-induced …; assay: flow cytometry, Alexa647-labelled protein on doxycycline-induced 32D[pRF770+pRF791] cells, 4 C 30 min, % A647-positive cells
Experimental: as §1

[11] = molecular target: T3, IL-15 signaling receptor on …; assay: flow cytometry, Alexa647-labelled protein on uninduced 32D[pRF770+pRF791] cells (human CD122 plus mouse CD132), 4 C 30 min, % A647-positive cells
Experimental: as §1

T4 sequence (Q13261 31-205 limits assumed): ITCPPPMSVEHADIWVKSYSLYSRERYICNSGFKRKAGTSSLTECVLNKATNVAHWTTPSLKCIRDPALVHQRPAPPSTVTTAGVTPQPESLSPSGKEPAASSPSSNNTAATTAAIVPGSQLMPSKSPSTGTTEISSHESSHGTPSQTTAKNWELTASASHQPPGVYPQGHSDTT

Row | Binder | Kd (human IL-2Rβ) [nM] | EC50 (read off the curve) [1] [nM] | pSTAT5 EC50 on PD-1(low) 32D reporter cells [2] [nM] | Fold change = EC50 (PD-1(low))/EC50 (PD-1+) [3] [fold] | pSTAT5 EC50 on PD-1+ 32D reporter cells [3] [pM] | binding result (human IL-15Rα) | pSTAT5 EC50 on PD-1(low) 32D reporter cells [4] [nM] | Fold change = EC50 (PD-1(low))/EC50 (PD-1+) [5] [fold] | pSTAT5 EC50 on PD-1+ 32D reporter cells [5] [pM] | pSTAT5 EC50 on PD-1(low) 32D reporter cells [6] [nM] | Fold change = EC50 (PD-1(low))/EC50 (PD-1+) [7] [fold] | pSTAT5 EC50 on PD-1+ 32D reporter cells [7] [pM] | pSTAT5 EC50 on PD-1(low) 32D reporter cells [8] [nM] | Fold change = EC50 (PD-1(low))/EC50 (PD-1+) [9] [fold] | pSTAT5 EC50 on PD-1+ 32D reporter cells [9] [pM] | EC50 (read off the curve) [10] [nM] | binding result [11]
1 | B1 | 518 | ~0.03 | 21.1 | 223 | 90 | no binding (tested: 3000 nM) | 13.3 | 1230 | 10.9 | 1.72 | 300 | 5.74 | 7.29 | 241 | 30.3 |  | 
2 | B2 |  |  |  |  |  |  |  |  |  |  |  |  |  |  |  | ~0.03 | no binding (tested: 500 nM)
